Measured values as given in patent CN116813758A (INST MICROBIOLOGY CAS, dated 2023).

Biological target: SARS-CoV-2原始毒株的RBD蛋白 (SARS-CoV-2 RBD-his) (SARS-CoV-2原始毒株, UniProt P0DTC2 319-541)

B1: 单链纳米抗体S43 (S43-his蛋白) (VHH)
VHH: QVQLQESGGGLVQPGGSLRLTCAPSGFTLDYYAIGWFRQAPGKEREGVSCISSNNSTYYADSVKGRFTISRDNAKNTVYLQMNSLKPEDTAVYYCAAEPDYSGVYYYTCGWTDFGSWGQGTQVTVSS
Kd: 0.12 nM
